Experimental data as given in patent US11202837B2, “Biological materials and uses thereof” (Antikor Biopharma Limited, priority 2014, dated 2021).
Read-outs that look alike come from different tables or passages of the source. Where a SMILES comes first, the peptide text is derived from it. [ ]: non-standard residue; d: D form. The star is where a group is joined. ξ: configuration not given here. Dolaproine = CO[C@@H]([C@@H]1CCCN1)[C@@H](C)C(=O)O; Dil = CC[C@H](C)[C@H](NC)[C@@H](CC(=O)O)OC; NMe2Val = CC(C)[C@@H](C(=O)*)N(C)C; ξNMe2Val = CC(C)C(C(=O)*)N(C)C; NMeV = CN[CH](C(=O)O)C(C)C; Ava = NCCCCC(=O)O

Columns and labels:
SKBr3 cells = assay: Cell killing assay (MTS), SKBr3 cells; type: cell-based, human
Procedure: (§1) SKBr3, human breast cancer cell line, high HER2 expression levels, up to 1,000,000 receptors per cell [Lazar G A, et al Proc Natl Acad Sci USA. […] When confluency was 70-80%, cells were washed with PBS (2×10 ml) and incubated with trypsin for 5-7 min. Complete media was added and the cells were resuspended by pipetting. The cells were recovered by centrifugation (2 min, 2000 rpm), the supernatant was discarded, and the cells were resuspended in complete DMEM (5 ml). The cells were then counted using a haemocytometer and diluted accordingly. They were plated at 4500 cells/well (200 μl) using attachment factor and incubated overnight at 37° C., 5% CO2 in a humidified atmosphere. U87 is a non-HER2 expressing glioblastoma cell line and was grown in a similar way, plated at 1000 cells/well.
(§2) […] Cell viability was measured using the Promega Aqueous Cell-titre-96™ aqueous one solution cell proliferation kit according to manufacturer's instructions. Briefly, the media was removed and 100 μl of complete phenol red free media, pre-combined with MTS reagent, was added to the cells (20 μl of reagent per 100 μl of media). The plates were read on an ELISA plate reader at 490 nm after a 2 hr incubation in the dark (5% CO2, 37° C.).
(§3) The data (absorption units) were converted to % cell survival by using the untreated controls as the 100% cell survival and the Triton X-100 controls as the 100% cell death. The average absorption value for the latter was subtracted from all the rest of the data in order to get a suitable baseline. The averages were converted to survival and standard error values were obtained for each n value (as a % cell survival). […] Experiments were repeated at least 3 times for each compound tested and a set or an average of the data was plotted and fitted to obtain a dose response curve.
(§4) The cells were recovered by centrifugation (2 min, 2000 rpm), the supernatant was discarded, and the cells were resuspended in complete McCoy's 5A (5 ml). The cells were then counted using a haemocytometer and diluted accordingly. They were plated at 5000 cells/well (200 μl) using attachment factor and incubated overnight at 37° C., 5% CO2 in a humidified atmosphere. U87 is a non-HER2 expressing glioblastoma cell line [Zitron I M et al (2013) BMC Cancer 13:83] and was grown in a similar way, plated at 1000 cells/well (using DMEM media). BT474 is a HER2 expressing breast cancer cell line [Brockhoff G et al (2007) Cell Prolif 40:488-507] and was grown in a similar way, plated at 7500 cells/well (using RPMI media). NCI-N87 is a HER2 expressing gastric cancer cell line [Yamashita-Kashima Y et al (2013) Oncol. Rep 30:1087-93] and was grown in a similar way, plated at 7500 cells/well (using RPMI media).
as §2, with “kit (MTS reagent)” for “kit”
(§5) The data (absorption units) were converted to % cell survival by using the untreated controls as the 100% cell survival and the Triton X-100 controls as the 100% cell death. The average absorption value for the latter was subtracted from all the rest of the data in order to get a suitable baseline. The averages were converted to survival and standard error values were obtained for each n value (as a % cell survival).

U87 cells = assay: Cell killing assay (MTS), U87 cells; type: cell-based
Procedure: as §1
(§6) The cells were exposed to the various ADCs diluted in complete media for 96 hours at 37° C., 5% CO2 in a humidified atmosphere. Cell viability was measured using the Promega Aqueous Cell-titre-96™ aqueous one solution cell proliferation kit according to manufacturer's instructions. Briefly, the media was removed and 100 μl of complete phenol red free media, pre-combined with MTS reagent, was added to the cells (20 μl of reagent per 100 μl of media). The plates were read on an ELISA plate reader at 490 nm after a 2 hr incubation in the dark (5% CO2, 37° C.).
as §3, §4
as §6, with “kit (MTS reagent)” for “kit”
as §5

BT474 cells = assay: Cell killing assay (MTS), BT474 cells; type: cell-based, human
Procedure: as §4
as §6, with “kit (MTS reagent)” for “kit”
as §3, with “dose-response” for “dose response”

[1] = SKBr3 Cells (HER2+++), 96 hours, Table 46
[2] = SKBr3 Cells (HER2+++), 96 hours, Table 46, read-out: IC50
[3] = U87 Cells (HER2−), 96 hours, Table 46
[4] = BT474 Cells (HER2++), 96 hours, Table 46
[5] = BT474 Cells (HER2++), 96 hours, Table 46, read-out: IC50
[6] = SKBr3 Cells (HER2 +++), 96 hours, Table 50
[7] = U87 Cells (HER2−), 96 hours, Table 50
[8] = U87 Cells (HER2−), 96 hours, Table 50, read-out: IC50

Which results are given for `CC(C)C(NC(=O)C(C(C)C)N(C)C)C(=O)N(C)C(C(=O)N1CCCC1C(=O)N1CCCC1C(=O)NCCCCC(=O)O)C(C)C` (centres unmarked) [Free P5C5 (acid) drug, P5C5] (ξNMe2Val-V[NMeV]PP[Ava]-OH; configuration not given here)?
IC50 (SKBr3 cells; Homo sapiens, SK-BR-3, 96 h, read-out: IC50 nM SKBr3 Cells (HER2+++)): 2200 ± 400 nM; IC50 (U87 cells; Homo sapiens, U-87 MG, 96 h, read-out: IC50 nM U87 Cells (HER2−)): 7300 ± 900 nM

What does the source list for `CC[C@H](C)[C@@H]([C@@H](CC(=O)N1CCC[C@H]1[C@H](OC)[C@@H](C)C(=O)N[C@@H](Cc1ccccc1)C(=O)O)OC)N(C)C(=O)[C@@H](NC(=O)[C@H](C(C)C)N(C)C)C(C)C` [Free drug Auristatin F] (NMe2Val-V[Dil][Dolaproine]F-OH)?
IC50 (SKBr3 cells; Homo sapiens, SK-BR-3, 96 h, read-out: IC50 pM): > 5.5 nM; IC50 (U87 cells; Homo sapiens, U-87 MG, 96 h, read-out: IC50 pM): > 12.5 nM; IC50 (BT474 cells; Homo sapiens, BT-474, 96 h, read-out: IC50 pM): > 2500 pM

What does the source list for `COc1cc2cc(c1Cl)N(C)C(=O)C[C@H](OC(=O)[C@H](C)N(C)C(=O)CCS)[C@]1(C)O[C@H]1[C@H](C)[C@@H]1C[C@@](O)(NC(=O)O1)[C@H](OC)/C=C/C=C(\C)C2` [Free drug DM1]?
IC50 (SKBr3 cells; Homo sapiens, SK-BR-3, 96 h, read-out: IC50 nM): 47.6 nM; IC50 (U87 cells; Homo sapiens, U-87 MG, 96 h, read-out: IC50 nM): 50.7 nM

B1: scFv (TCT)-P5C5, DAR = 12 (conjugate)
scFv: SGSGGSGQVQLVQSGAEVKKPGESLKISCKGSGYSFTSYWIAWVRQMPGKGLEYMGLIYPGDSDTKYSPSFQGQVTISVDKSVSTAYLQWSSLKPSDSAVYFCARHDVGYCSSSNCAAWPEYFQHWGQGTLVTVSSGGGGSGGGGSGGGGSQSVLTQPPSVSAAPGQKVTISCSGSSSNIGNNYVSWYQQLPGTAPKLLIYGHTNRPAGVPDRFSGSKSGTSASLAISGFRSEDEADYYCAAWDDSLSGWVFGGGTKLTVLMASMTGGQQMG
With B1 as the molecule, how does the “IC50 μg/ml SKBr3 Cells (HER2+++)” value (SKBr3 cells; 96 hours exposure) read?
Its value is 5.01 ± 1.9 µg/mL.

And the IC50 (SKBr3 cells; 96 hours exposure, read-out: IC50 nM SKBr3 Cells (HER2+++))?
Its IC50 is 179 ± 68 nM.

And the “IC50 μg/ml U87 Cells (HER2−)” value (U87 cells; 96 hours exposure)?
Its value is 100 µg/mL.

What about the IC50 (U87 cells; 96 hours exposure, read-out: IC50 nM U87 Cells (HER2−)) of the same molecule?
The IC50 was 3570 nM.

B2: scFv (TCT)-MMAF-C5, DAR 6.6 (conjugate)
scFv: SGSGGSGQVQLVQSGAEVKKPGESLKISCKGSGYSFTSYWIAWVRQMPGKGLEYMGLIYPGDSDTKYSPSFQGQVTISVDKSVSTAYLQWSSLKPSDSAVYFCARHDVGYCSSSNCAAWPEYFQHWGQGTLVTVSSGGGGSGGGGSGGGGSQSVLTQPPSVSAAPGQKVTISCSGSSSNIGNNYVSWYQQLPGTAPKLLIYGHTNRPAGVPDRFSGSKSGTSASLAISGFRSEDEADYYCAAWDDSLSGWVFGGGTKLTVLMASMTGGQQMG
How did the “IC50 μg/ml” value (SKBr3 cells; [1]) turn out when B2 was run?
The value was 0.087 µg/mL.

And the IC50 (SKBr3 cells; [2])?
Its IC50 is 0.0031 nM.

What about the “IC50 μg/ml” value (U87 cells; [3]) of the same molecule?
The value was over 5 µg/mL.

What about the “IC50 μg/ml” value (BT474 cells; [4]) of the same molecule?
The value was 0.2 µg/mL.

And the IC50 (BT474 cells; [5])?
Its IC50 is 7.14 pM.

B3: scFv (TCT1067)-MMAF-C5, DAR 6.4 (conjugate)
scFv: SGSGGSGQVQLVQSGAEVKKPGESLKISCKGSGYSFTSYWIAWVRQMPGKGLEYMGLIYPGDSDTKYSPSFQGQVTISVDKSVSTAYLQWSSLKPSDSAVYFCARHDVGYCTDRTCAAWPEWLGVWGQGTLVTVSSGGGGSGGGGSGGGGSQSVLTQPPSVSAAPGQKVTISCSGSSSNIGNNYVSWYQQLPGTAPKLLIYGHTNRPAGVPDRFSGSKSGTSASLAISGFRSEDEADYYCASWDYTLSGWVFGGGTKLTVLMASMTGGQQMG
For B3, which “IC50 μg/ml” value (SKBr3 cells; [1]) is on record?
The value was 0.007 µg/mL.

What about the IC50 (SKBr3 cells; [2]) of the same molecule?
Its IC50 is 0.25 nM.

What about the “IC50 μg/ml” value (U87 cells; [3]) of the same molecule?
Its value is over 5 µg/mL.

What about the “IC50 μg/ml” value (BT474 cells; [4]) of the same molecule?
The value was 0.008 µg/mL.

What about the IC50 (BT474 cells; [5]) of the same molecule?
The IC50 was 286 pM.

B4: scFv (TCT1067)-P5C5 DAR 12.5 (conjugate)
scFv: SGSGGSGQVQLVQSGAEVKKPGESLKISCKGSGYSFTSYWIAWVRQMPGKGLEYMGLIYPGDSDTKYSPSFQGQVTISVDKSVSTAYLQWSSLKPSDSAVYFCARHDVGYCTDRTCAAWPEWLGVWGQGTLVTVSSGGGGSGGGGSGGGGSQSVLTQPPSVSAAPGQKVTISCSGSSSNIGNNYVSWYQQLPGTAPKLLIYGHTNRPAGVPDRFSGSKSGTSASLAISGFRSEDEADYYCASWDYTLSGWVFGGGTKLTVLMASMTGGQQMG
With B4 as the molecule, how does the “IC50 μg/ml” value (SKBr3 cells; SKBr3 Cells (HER2+++), 96 hours, Table 48) read?
Its value is 0.04 µg/mL.

What about the IC50 (SKBr3 cells; SKBr3 Cells (HER2+++), 96 hours, Table 48, read-out: IC50) of the same molecule?
The IC50 was 1.42 nM.

What about the “IC50 μg/ml” value (BT474 cells; BT474 Cells (HER2++), 96 hours, Table 48) of the same molecule?
The value was 0.3 µg/mL.

What about the IC50 (BT474 cells; BT474 Cells (HER2++), 96 hours, Table 48, read-out: IC50) of the same molecule?
The IC50 was 10700 pM.

B5: scFv (TCT1067)-DM1 DAR 5.5 (conjugate)
scFv: SGSGGSGQVQLVQSGAEVKKPGESLKISCKGSGYSFTSYWIAWVRQMPGKGLEYMGLIYPGDSDTKYSPSFQGQVTISVDKSVSTAYLQWSSLKPSDSAVYFCARHDVGYCTDRTCAAWPEWLGVWGQGTLVTVSSGGGGSGGGGSGGGGSQSVLTQPPSVSAAPGQKVTISCSGSSSNIGNNYVSWYQQLPGTAPKLLIYGHTNRPAGVPDRFSGSKSGTSASLAISGFRSEDEADYYCASWDYTLSGWVFGGGTKLTVLMASMTGGQQMG
Which “IC50 μg/ml” value (SKBr3 cells; [6]) does the source give for B5 here?
Its value is 0.0078 µg/mL.

What about the “IC50 μg/ml” value (U87 cells; [7]) of the same molecule?
Its value is 0.419 µg/mL.

What about the IC50 (U87 cells; [8]) of the same molecule?
Its IC50 is 14.9 nM.

B6: scFv (TCT1067)-DM1 DAR 3.5 (conjugate)
scFv: SGSGGSGQVQLVQSGAEVKKPGESLKISCKGSGYSFTSYWIAWVRQMPGKGLEYMGLIYPGDSDTKYSPSFQGQVTISVDKSVSTAYLQWSSLKPSDSAVYFCARHDVGYCTDRTCAAWPEWLGVWGQGTLVTVSSGGGGSGGGGSGGGGSQSVLTQPPSVSAAPGQKVTISCSGSSSNIGNNYVSWYQQLPGTAPKLLIYGHTNRPAGVPDRFSGSKSGTSASLAISGFRSEDEADYYCASWDYTLSGWVFGGGTKLTVLMASMTGGQQMG
For B6, which “IC50 μg/ml” value (SKBr3 cells; [6]) is on record?
Its value is 0.0417 µg/mL.

What about the IC50 (SKBr3 cells; SKBr3 Cells (HER2 +++), 96 hours, Table 50, read-out: IC50) of the same molecule?
The IC50 was 1.49 nM.

And the “IC50 μg/ml” value (U87 cells; [7])?
The value was 0.641 µg/mL.

What about the IC50 (U87 cells; [8]) of the same molecule?
Its IC50 is 22.9 nM.
